According to paper PMC6294747, “Plasmodium falciparum infected erythrocytes can bind to host receptors integrins αVβ3 and αVβ6 through DBLδ1_D4 domain of PFL2665c PfEMP1 protein” (Scientific Reports, 2018):

What was measured:
[1] = biological target: T1, integrin αVβ6 (R&D Systems, Cat #3817-AV) (UniProt P06756 31-1048; P18564 22-709, biotinylated (for the bead assays; sites not stated) | biotinylated (for the bead assays; sites not stated)); test: Bio-Plex bead binding assay, initial velocities with Lineweaver-Burk plot; avidity constants; beads with immobilised PFL2665c DBLδ1_D4; biotinylated integrin at 3, 6 and 12 µg/ml, 0, 10, 30 min (αVβ3) or 0, 5, 15 min (αVβ6); 1xTBS, 1 mM CaCl2, 1 mM MgCl2; streptavidin-PE; corrected for HisAdEx; details: both partners purified
T1 construct: integrin alpha-V chain of soluble recombinant αVβ6; integrin beta-6 chain of soluble recombinant αVβ6; Molecular weight 189.1 kDa according to the manufacturer; Biotinylated when used in solution on beads; immobilised on Petri dishes for the adhesion assays; also called recombinant αVβ6; source: bought: R&D Systems, Cat #3817-AV

[2] = biological target: T2, integrin αVβ3 (R&D Systems, Cat #3050-AV) (human, UniProt P06756 31-1048; P05106 27-718, biotinylated (for the bead assays; sites not stated) | biotinylated (for the bead assays; sites not stated)); test: as above; details: both partners purified
T2 construct: integrin alpha-V chain of soluble recombinant αVβ3; integrin beta-3 chain of soluble recombinant αVβ3; Molecular weight 191.3 kDa according to the manufacturer; Biotinylated when used in solution on beads; immobilised on Petri dishes for the adhesion assays; also called αVβ3 integrin; soluble recombinant αVβ3; source: bought: R&D Systems, Cat #3050-AV

B1: DBLδ1_D4 domain of PFL2665c PfEMP1 (single domain) (domain or fragment)
chain: GDDLKQACSTKYGPKAPTSWKCVPSGVSTATSGEGGDAKSRERREAGVPTATSSGNTTGGGKDGATGGSICVPPRRRRLYVGGLTKWAKKYTGNTGESKSQEGVLQTKAVVDGKANAEGGGQKGARGPNGGTEGANSGKGAQQQQEQQQEQQQEQQQQQQQQQQQQPHSTDSSSSPPSSNPRDVDLRNAFVESAAIETFFLWDRYKKEKEKEKEDIEKNGQDTVAYTSSVEKDPQEELQRGDIPDGFLRQMFYTLGDYRDILYSGDKENGNKYMLVDDIKDISDKIKSILNSDVGQKTTAKQWWDDNGQHIWNGMIYALTYNTDTPSGDKPTQIDEVRAQLWDEKEKKPKKTDNDHDYTYENVELKEDDDQSGAKTPSASSGSNDPINNPQLSDFVEIPTYFRWLHEWGSDFCGTRKRMLGKIKHECRGDKVCSGYGENCDDQLKDNPSIFPSLNCPSCGTPCRYYKKWINTKKTEYDKQKSAYEQQQGKCEKENNGAEGNDHDKKFCTRIQNCNEAKDFLKTLGPCRTNDESGKGTLYFDDDTFKH
B1 showed a Kd [1] of 56.4 nM and a Kd [2] of 62 nM.
